The results in this text go back to patent US20200216522A1 (DENALI THERAPEUTICS, published 2020).

This experiment deals with T1, full-length human Tau (Tau441; 2N4R), recombinant (human, UniProt P10636 1-758).
T1 construct: made in E. coli, His6-Smt3 tag removed; biotinylated through amines for Octet and phage work; also called r-Tau; recombinant Tau
Nature of the experiment: SPR Biacore. The method, then: IgG was purified with protein A affinity chromatography. The affinity of each hulC7 IgG variant for r-Tau was determined by surface plasmon resonance using a Biacore™ T200 instrument. Biacore™ Series S CM5 sensor chips were immobilized with monoclonal mouse anti-human IgG (Fc) antibody (Human antibody capture kit from GE Healthcare). Serial 3-fold dilutions of each hulC7 variant were injected at a flow rate of […]. Each sample was analyzed with 3-minute association and 10-minute dissociation. After each injection, the chip was regenerated using 3 M MgCl₂. Binding response was corrected by subtracting the RU from a flow cell capturing an irrelevant IgG at similar density. A 1:1 Languir model of simultaneous fitting of kₒₙ and koff was used for kinetics analysis.
A further round of affinity maturation was performed by mutating certain amino acids in selected CDR-H1, CDR-L1, and CDR-L3 sequences from Table 9A, as well as the sequence of CDR-H2 (SEQ ID NO:23) of hulC7.v2. Sequence changes were identified in each CDR (Table 9B). Binding affinities were evaluated using Biacore™ (Table 10B).
In general terms: In SPR one partner is held on a chip, and binding of the other changes the refractive index at the surface.

T1 sequence (P10636 other isoform, or with tags, fused parts or gaps limits assumed): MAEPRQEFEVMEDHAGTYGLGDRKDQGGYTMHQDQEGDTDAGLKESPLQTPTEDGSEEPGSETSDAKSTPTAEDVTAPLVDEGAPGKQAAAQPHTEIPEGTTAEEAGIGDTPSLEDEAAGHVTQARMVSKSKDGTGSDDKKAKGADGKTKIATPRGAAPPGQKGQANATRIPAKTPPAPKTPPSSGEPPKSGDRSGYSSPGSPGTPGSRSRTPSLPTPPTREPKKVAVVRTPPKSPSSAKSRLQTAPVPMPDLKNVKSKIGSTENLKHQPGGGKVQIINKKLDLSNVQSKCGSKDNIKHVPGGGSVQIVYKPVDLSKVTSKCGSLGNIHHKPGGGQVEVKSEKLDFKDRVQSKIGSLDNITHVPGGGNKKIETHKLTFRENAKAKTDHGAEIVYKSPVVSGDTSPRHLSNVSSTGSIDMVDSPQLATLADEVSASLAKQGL

B1: Clone with H1_2-1 (antibody, V domains shown)
VH: EVQLLESGGGLVQPGGSLRLSCAASGFTFSSVGTSWVRQAPGKGLEWVASISGDGGSYIHYADSVKGRFTISRDNSKNTLYLQMNSLRAEDTAVYYCARLPYWGQGTLVTVSS
VL: DIVMTQSPDSLAVSLGERATINCKSSQSLLNSGNQKNYLTWYQQKPGQPPKLLIYWASTRESGVPDRFSGSGSGTDFTLTISSLQAEDVAVYYCQQYNSYPLTFGQGTKVEIKR
notes: based on hu1C7.v2
A word on the Kd: it is the free concentration of one partner at which half of the binding sites on the other are occupied at equilibrium, for simple one-to-one binding. A word on the koff: it is the first-order rate constant of dissociation. A word on the kon: it is the rate constant with which the complex forms. For the molecule B1, the Kd was found to be 1.3 nM, the koff is 0.000183 s⁻¹ and the kon came to 141000 M⁻¹ s⁻¹.

B2: Clone with H2_5 (antibody, V domains shown)
VH: EVQLLESGGGLVQPGGSLRLSCAASGFTFSSYGMSWVRQAPGKGLEWVASISGDGGSYIHYASSVKGRFTISRDNSKNTLYLQMNSLRAEDTAVYYCARLPYWGQGTLVTVSS
VL: DIVMTQSPDSLAVSLGERATINCKSSQSLLNSGNQKNYLTWYQQKPGQPPKLLIYWASTRESGVPDRFSGSGSGTDFTLTISSLQAEDVAVYYCQQYNSYPLTFGQGTKVEIKR
notes: based on hu1C7.v2
Take B2: the Kd worked out at 3.79 nM, the koff amounted to 0.00176 s⁻¹ and the kon is 465000 M⁻¹ s⁻¹.

B3: Clone with H2_3 (antibody, V domains shown)
VH: EVQLLESGGGLVQPGGSLRLSCAASGFTFSSYGMSWVRQAPGKGLEWVASISGSGGSYIHYADSVKGRFTISRDNSKNTLYLQMNSLRAEDTAVYYCARLPYWGQGTLVTVSS
VL: DIVMTQSPDSLAVSLGERATINCKSSQSLLNSGNQKNYLTWYQQKPGQPPKLLIYWASTRESGVPDRFSGSGSGTDFTLTISSLQAEDVAVYYCQQYNSYPLTFGQGTKVEIKR
notes: based on hu1C7.v2
Regarding B3, the Kd is 9.68 nM, the koff came to 0.00408 s⁻¹ and the kon is 422000 M⁻¹ s⁻¹.

B4: Clone with L1_4 (antibody, V domains shown)
VH: EVQLLESGGGLVQPGGSLRLSCAASGFTFSSYGMSWVRQAPGKGLEWVASISGDGGSYIHYADSVKGRFTISRDNSKNTLYLQMNSLRAEDTAVYYCARLPYWGQGTLVTVSS
VL: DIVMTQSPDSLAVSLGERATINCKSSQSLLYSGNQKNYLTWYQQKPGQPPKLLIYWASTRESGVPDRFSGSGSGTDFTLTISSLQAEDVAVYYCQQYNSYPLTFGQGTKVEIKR
notes: based on hu1C7.v2
Turning to B4, the dissociation constant (Kd) was 0.577 nM, the koff worked out at 0.000662 s⁻¹ and the kon turned out to be 1.15e+06 M⁻¹ s⁻¹.

B5: Clone with H1_4-5 (antibody, V domains shown)
VH: EVQLLESGGGLVQPGGSLRLSCAASGFRFSGYGMSWVRQAPGKGLEWVASISGDGGSYIHYADSVKGRFTISRDNSKNTLYLQMNSLRAEDTAVYYCARLPYWGQGTLVTVSS
VL: DIVMTQSPDSLAVSLGERATINCKSSQSLLNSGNQKNYLTWYQQKPGQPPKLLIYWASTRESGVPDRFSGSGSGTDFTLTISSLQAEDVAVYYCQQYNSYPLTFGQGTKVEIKR
notes: based on hu1C7.v2
For the molecule B5, the Kd came out at 0.591 nM, the koff was 0.000163 s⁻¹ and the kon was 276000 M⁻¹ s⁻¹.

B6: Clone with H1_2-4 (antibody, V domains shown)
VH: EVQLLESGGGLVQPGGSLRLSCAASGFTFSLVGTSWVRQAPGKGLEWVASISGDGGSYIHYADSVKGRFTISRDNSKNTLYLQMNSLRAEDTAVYYCARLPYWGQGTLVTVSS
VL: DIVMTQSPDSLAVSLGERATINCKSSQSLLNSGNQKNYLTWYQQKPGQPPKLLIYWASTRESGVPDRFSGSGSGTDFTLTISSLQAEDVAVYYCQQYNSYPLTFGQGTKVEIKR
notes: based on hu1C7.v2
On to B6, for which the Kd is 1.41 nM, the koff stood at 0.000151 s⁻¹ and the kon is 107000 M⁻¹ s⁻¹.

B7: Clone with H1_2-2 (antibody, V domains shown)
VH: EVQLLESGGGLVQPGGSLRLSCAASGFTFSMVGTSWVRQAPGKGLEWVASISGDGGSYIHYADSVKGRFTISRDNSKNTLYLQMNSLRAEDTAVYYCARLPYWGQGTLVTVSS
VL: DIVMTQSPDSLAVSLGERATINCKSSQSLLNSGNQKNYLTWYQQKPGQPPKLLIYWASTRESGVPDRFSGSGSGTDFTLTISSLQAEDVAVYYCQQYNSYPLTFGQGTKVEIKR
notes: based on hu1C7.v2
For B7, the dissociation constant Kd worked out at 0.759 nM, the koff is 9.71e-05 s⁻¹ and the kon was 128000 M⁻¹ s⁻¹.

B8: Clone with H1_2-5 (antibody, V domains shown)
VH: EVQLLESGGGLVQPGGSLRLSCAASGFTFSKVGTSWVRQAPGKGLEWVASISGDGGSYIHYADSVKGRFTISRDNSKNTLYLQMNSLRAEDTAVYYCARLPYWGQGTLVTVSS
VL: DIVMTQSPDSLAVSLGERATINCKSSQSLLNSGNQKNYLTWYQQKPGQPPKLLIYWASTRESGVPDRFSGSGSGTDFTLTISSLQAEDVAVYYCQQYNSYPLTFGQGTKVEIKR
notes: based on hu1C7.v2
On to B8, for which the Kd amounted to 0.578 nM, the koff is 0.000144 s⁻¹ and the kon is 249000 M⁻¹ s⁻¹.

B9: Clone with H1_4-3 (antibody, V domains shown)
VH: EVQLLESGGGLVQPGGSLRLSCAASGFMFSGPGMSWVRQAPGKGLEWVASISGDGGSYIHYADSVKGRFTISRDNSKNTLYLQMNSLRAEDTAVYYCARLPYWGQGTLVTVSS
VL: DIVMTQSPDSLAVSLGERATINCKSSQSLLNSGNQKNYLTWYQQKPGQPPKLLIYWASTRESGVPDRFSGSGSGTDFTLTISSLQAEDVAVYYCQQYNSYPLTFGQGTKVEIKR
notes: based on hu1C7.v2
Take B9: the Kd is 0.502 nM, the koff was found to be 0.000203 s⁻¹ and the kon stood at 404000 M⁻¹ s⁻¹.

B10: Clone with H2_1 (antibody, V domains shown)
VH: EVQLLESGGGLVQPGGSLRLSCAASGFTFSSYGMSWVRQAPGKGLEWVASISGEGGSYIHYADSVKGRFTISRDNSKNTLYLQMNSLRAEDTAVYYCARLPYWGQGTLVTVSS
VL: DIVMTQSPDSLAVSLGERATINCKSSQSLLNSGNQKNYLTWYQQKPGQPPKLLIYWASTRESGVPDRFSGSGSGTDFTLTISSLQAEDVAVYYCQQYNSYPLTFGQGTKVEIKR
notes: based on hu1C7.v2
With B10, the Kd worked out at 8.28 nM, the koff stood at 0.00369 s⁻¹ and the kon was 446000 M⁻¹ s⁻¹.

B11: Clone with L1_5 (antibody, V domains shown)
VH: EVQLLESGGGLVQPGGSLRLSCAASGFTFSSYGMSWVRQAPGKGLEWVASISGDGGSYIHYADSVKGRFTISRDNSKNTLYLQMNSLRAEDTAVYYCARLPYWGQGTLVTVSS
VL: DIVMTQSPDSLAVSLGERATINCKSSQSLLSSGNQKNYLTWYQQKPGQPPKLLIYWASTRESGVPDRFSGSGSGTDFTLTISSLQAEDVAVYYCQQYNSYPLTFGQGTKVEIKR
notes: based on hu1C7.v2
B11: the dissociation constant Kd was found to be 1.39 nM, the koff is 0.000885 s⁻¹ and the kon was determined as 636000 M⁻¹ s⁻¹.

B12: Clone with H1_4-1 (antibody, V domains shown)
VH: EVQLLESGGGLVQPGGSLRLSCAASGFTFSGPGMSWVRQAPGKGLEWVASISGDGGSYIHYADSVKGRFTISRDNSKNTLYLQMNSLRAEDTAVYYCARLPYWGQGTLVTVSS
VL: DIVMTQSPDSLAVSLGERATINCKSSQSLLNSGNQKNYLTWYQQKPGQPPKLLIYWASTRESGVPDRFSGSGSGTDFTLTISSLQAEDVAVYYCQQYNSYPLTFGQGTKVEIKR
notes: based on hu1C7.v2
On to B12, for which the Kd came out at 0.837 nM, the koff was 0.000144 s⁻¹ and the kon is 172000 M⁻¹ s⁻¹.

B13: Clone with H1_4-4 (antibody, V domains shown)
VH: EVQLLESGGGLVQPGGSLRLSCAASGFRFSSPGMSWVRQAPGKGLEWVASISGDGGSYIHYADSVKGRFTISRDNSKNTLYLQMNSLRAEDTAVYYCARLPYWGQGTLVTVSS
VL: DIVMTQSPDSLAVSLGERATINCKSSQSLLNSGNQKNYLTWYQQKPGQPPKLLIYWASTRESGVPDRFSGSGSGTDFTLTISSLQAEDVAVYYCQQYNSYPLTFGQGTKVEIKR
notes: based on hu1C7.v2
As to B13, the Kd turned out to be 3.81 nM, the koff was determined as 0.00126 s⁻¹ and the kon was determined as 331000 M⁻¹ s⁻¹.

B14: Clone with H1_2-3 (antibody, V domains shown)
VH: EVQLLESGGGLVQPGGSLRLSCAASGFTFSQVGTSWVRQAPGKGLEWVASISGDGGSYIHYADSVKGRFTISRDNSKNTLYLQMNSLRAEDTAVYYCARLPYWGQGTLVTVSS
VL: DIVMTQSPDSLAVSLGERATINCKSSQSLLNSGNQKNYLTWYQQKPGQPPKLLIYWASTRESGVPDRFSGSGSGTDFTLTISSLQAEDVAVYYCQQYNSYPLTFGQGTKVEIKR
notes: based on hu1C7.v2
Consider B14, for which the Kd came out at 0.477 nM, the koff turned out to be 9.39e-05 s⁻¹ and the kon turned out to be 197000 M⁻¹ s⁻¹.

B15: Clone with H2_6 (antibody, V domains shown)
VH: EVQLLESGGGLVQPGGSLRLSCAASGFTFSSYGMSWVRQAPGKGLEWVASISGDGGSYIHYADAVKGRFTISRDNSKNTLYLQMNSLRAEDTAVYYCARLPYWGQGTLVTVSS
VL: DIVMTQSPDSLAVSLGERATINCKSSQSLLNSGNQKNYLTWYQQKPGQPPKLLIYWASTRESGVPDRFSGSGSGTDFTLTISSLQAEDVAVYYCQQYNSYPLTFGQGTKVEIKR
notes: based on hu1C7.v2
B15: the Kd was 3.79 nM, the koff amounted to 0.00175 s⁻¹ and the kon was 462000 M⁻¹ s⁻¹.

B16: Clone with H2_4 (antibody, V domains shown)
VH: EVQLLESGGGLVQPGGSLRLSCAASGFTFSSYGMSWVRQAPGKGLEWVASISGDAGSYIHYADSVKGRFTISRDNSKNTLYLQMNSLRAEDTAVYYCARLPYWGQGTLVTVSS
VL: DIVMTQSPDSLAVSLGERATINCKSSQSLLNSGNQKNYLTWYQQKPGQPPKLLIYWASTRESGVPDRFSGSGSGTDFTLTISSLQAEDVAVYYCQQYNSYPLTFGQGTKVEIKR
notes: based on hu1C7.v2
Regarding B16, the Kd is 6.4 nM, the koff was 0.00309 s⁻¹ and the kon is 484000 M⁻¹ s⁻¹.

B17: Clone with H1_4-2 (antibody, V domains shown)
VH: EVQLLESGGGLVQPGGSLRLSCAASGFQFSGPGMSWVRQAPGKGLEWVASISGDGGSYIHYADSVKGRFTISRDNSKNTLYLQMNSLRAEDTAVYYCARLPYWGQGTLVTVSS
VL: DIVMTQSPDSLAVSLGERATINCKSSQSLLNSGNQKNYLTWYQQKPGQPPKLLIYWASTRESGVPDRFSGSGSGTDFTLTISSLQAEDVAVYYCQQYNSYPLTFGQGTKVEIKR
notes: based on hu1C7.v2
With B17, the Kd was found to be 0.416 nM, the koff is 0.000128 s⁻¹ and the kon amounted to 308000 M⁻¹ s⁻¹.

B18: Clone with H2_2 (antibody, V domains shown)
VH: EVQLLESGGGLVQPGGSLRLSCAASGFTFSSYGMSWVRQAPGKGLEWVASISGTGGSYIHYADSVKGRFTISRDNSKNTLYLQMNSLRAEDTAVYYCARLPYWGQGTLVTVSS
VL: DIVMTQSPDSLAVSLGERATINCKSSQSLLNSGNQKNYLTWYQQKPGQPPKLLIYWASTRESGVPDRFSGSGSGTDFTLTISSLQAEDVAVYYCQQYNSYPLTFGQGTKVEIKR
notes: based on hu1C7.v2
Turning to B18, the Kd was determined as 9.11 nM, the koff was 0.00378 s⁻¹ and the kon is 415000 M⁻¹ s⁻¹.
